According to PMC3905896 (Nucleic Acids Research, 2013):

T1: PtxS (assayed together with PtxR at Pgad) (Pseudomonas aeruginosa, UniProt G3XD97)
T1 sequence (G3XD97 1-340): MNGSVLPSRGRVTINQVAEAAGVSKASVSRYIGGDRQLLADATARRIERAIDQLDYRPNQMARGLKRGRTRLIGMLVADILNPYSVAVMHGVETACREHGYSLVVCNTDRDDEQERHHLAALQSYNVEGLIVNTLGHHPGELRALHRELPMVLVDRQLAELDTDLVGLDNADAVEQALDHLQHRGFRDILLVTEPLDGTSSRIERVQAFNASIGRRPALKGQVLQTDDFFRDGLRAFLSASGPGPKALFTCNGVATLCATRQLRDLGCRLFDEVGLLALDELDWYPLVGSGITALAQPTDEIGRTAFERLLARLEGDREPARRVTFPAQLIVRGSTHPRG

T2: PtxR (Pseudomonas aeruginosa, UniProt P72131 1-312)
T2 sequence (looked up): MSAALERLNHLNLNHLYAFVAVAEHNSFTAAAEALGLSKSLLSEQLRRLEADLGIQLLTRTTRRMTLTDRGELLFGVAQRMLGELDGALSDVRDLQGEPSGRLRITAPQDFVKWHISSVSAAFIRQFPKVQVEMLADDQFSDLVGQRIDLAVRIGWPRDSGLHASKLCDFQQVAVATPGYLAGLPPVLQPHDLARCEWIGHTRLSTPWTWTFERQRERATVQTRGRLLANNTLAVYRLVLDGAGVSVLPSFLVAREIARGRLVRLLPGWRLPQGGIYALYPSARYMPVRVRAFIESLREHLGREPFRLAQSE

B1: PtxS (natural protein, Pseudomonas aeruginosa, UniProt G3XD97 1-340, looked up)
chain: T1 sequence (G3XD97 1-340)

What was measured:
[1] = biological target: T1, PtxS (assayed together with PtxR at Pgad); type: biochemical
PtxR = biological target: T2, PtxR; test: ITC

Row | Molecule | EC50 [1] | KD of the first binding event (PtxR) | KD of the second binding event (PtxR) | dH of the first binding event (PtxR) | dH of the second binding event (PtxR)
1 | O=C(O)C(=O)[C@@H](O)[C@H](O)[C@H](O)CO [2-ketogluconate] | 78 µM | – | – | – | –
2 | B1 | – | 0.012 ± 0.002 µM | 0.099 ± 0.008 µM | -114 ± 2.93 kJ/mol | -54.4 ± 3.35 kJ/mol
